The record followed here is PMC11059244.

The conditions of this data set: phosphorylation at S405.

In the case of YAP: S405A, the degradation_or_half_life result was “decreases” and the other result is on record as “increases”. Take YAP: S405D phosphomimetic: the other entry is recorded as “decreases”. Consider YAP: ponatinib (MAP3K3 inhibitor), for which the expression_or_secretion result is “decreases”.
